Reference: patent publication US20240158515A1 (Regeneron, published 2024)

T1: cynomolgus FGFR3b expressed with a C-terminal myc-myc-hexahistidine tag (mfFGFR3b.mmH) (cynomolgus)
T1 construct: also called REGN3521; mf FGFR3b ecto (R357G)(E23-G377;R357G).mmH
T1 chain: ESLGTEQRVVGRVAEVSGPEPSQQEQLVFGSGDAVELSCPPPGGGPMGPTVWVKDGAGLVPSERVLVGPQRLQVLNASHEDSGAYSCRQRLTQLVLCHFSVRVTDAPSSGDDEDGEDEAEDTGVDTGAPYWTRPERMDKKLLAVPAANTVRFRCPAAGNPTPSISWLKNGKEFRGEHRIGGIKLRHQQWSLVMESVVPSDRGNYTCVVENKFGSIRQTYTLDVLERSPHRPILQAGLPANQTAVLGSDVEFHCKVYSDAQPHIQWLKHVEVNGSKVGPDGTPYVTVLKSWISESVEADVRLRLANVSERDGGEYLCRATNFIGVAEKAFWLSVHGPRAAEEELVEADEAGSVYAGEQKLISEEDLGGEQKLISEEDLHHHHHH

T2: human FGFR3b expressed with a C-terminal myc-myc-hexahistidine tag (hFGFR3b.mmH) (human)
T2 construct: also called REGN3152; monomeric human FGFR3b
T2 chain: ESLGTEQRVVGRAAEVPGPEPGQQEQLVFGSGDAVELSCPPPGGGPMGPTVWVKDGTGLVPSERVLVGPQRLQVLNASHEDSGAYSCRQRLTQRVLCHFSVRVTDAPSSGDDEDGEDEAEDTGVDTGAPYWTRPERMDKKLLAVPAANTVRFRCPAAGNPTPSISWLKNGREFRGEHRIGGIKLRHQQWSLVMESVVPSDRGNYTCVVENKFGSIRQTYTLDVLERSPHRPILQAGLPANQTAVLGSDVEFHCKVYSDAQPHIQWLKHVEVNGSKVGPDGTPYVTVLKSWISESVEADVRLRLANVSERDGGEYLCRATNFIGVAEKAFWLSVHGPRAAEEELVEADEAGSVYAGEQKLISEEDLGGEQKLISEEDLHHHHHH

T3: murine FGFR3b expressed with a C-terminal myc-myc-hexahistidine tag (mFGFR3b.mmH) (murine)
T3 construct: also called REGN3215; monomeric murine FGFR3b
T3 chain: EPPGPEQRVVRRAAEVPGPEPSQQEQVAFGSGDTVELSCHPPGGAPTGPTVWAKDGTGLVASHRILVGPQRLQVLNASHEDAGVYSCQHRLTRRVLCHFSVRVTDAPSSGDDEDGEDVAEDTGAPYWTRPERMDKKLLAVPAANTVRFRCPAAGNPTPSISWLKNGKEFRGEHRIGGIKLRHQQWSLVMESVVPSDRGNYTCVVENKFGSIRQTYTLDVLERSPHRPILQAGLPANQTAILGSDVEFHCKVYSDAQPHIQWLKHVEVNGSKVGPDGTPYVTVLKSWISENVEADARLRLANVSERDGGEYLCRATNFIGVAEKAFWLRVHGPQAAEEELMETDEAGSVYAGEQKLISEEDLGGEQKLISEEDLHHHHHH

T4: human FGFR3b expressed with a C-terminal murine Fc tag (hFGFR3b.mFc) (human)
T4 construct: called dimeric; also called REGN3153; dimeric human FGFR3b
T4 chain: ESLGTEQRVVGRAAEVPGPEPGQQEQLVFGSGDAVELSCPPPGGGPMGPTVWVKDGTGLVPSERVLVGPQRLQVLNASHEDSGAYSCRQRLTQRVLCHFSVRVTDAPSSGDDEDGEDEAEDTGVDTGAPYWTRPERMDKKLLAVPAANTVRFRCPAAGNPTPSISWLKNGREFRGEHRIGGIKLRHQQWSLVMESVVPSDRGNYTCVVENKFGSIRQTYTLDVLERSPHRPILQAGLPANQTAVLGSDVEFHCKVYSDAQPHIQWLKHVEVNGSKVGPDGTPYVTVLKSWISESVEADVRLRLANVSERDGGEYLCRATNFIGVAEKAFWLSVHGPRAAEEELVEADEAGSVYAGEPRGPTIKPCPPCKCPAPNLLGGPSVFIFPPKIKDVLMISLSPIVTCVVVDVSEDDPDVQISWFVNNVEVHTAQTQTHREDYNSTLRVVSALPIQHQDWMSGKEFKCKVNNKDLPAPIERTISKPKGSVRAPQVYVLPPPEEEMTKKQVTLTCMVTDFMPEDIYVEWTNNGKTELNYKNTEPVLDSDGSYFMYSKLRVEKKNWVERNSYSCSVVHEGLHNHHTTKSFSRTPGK


What was measured:
[1] = molecular target: T1, cynomolgus FGFR3b expressed with a …; experiment: SPR Biacore, mAb captured on anti-hFc, 25C
Method: (§1) The CM5 Biacore sensor surface was derivatized by amine coupling with a monoclonal mouse anti-human Fc monoclonal antibody (REGN2567). […] Antibody-reagent association was monitored for 5 minutes while dissociation in HBS-EP running buffer was monitored for 10 minutes. At the end of each cycle, the anti-FGFR3 antibody capture surface was regenerated using a 10 sec injection of 20 mM phosphoric acid. All binding kinetics experiments were performed at 25° C.
(§2) The specific SPR-Biacore sensorgrams were obtained by a double referencing procedure. The double referencing was performed by first subtracting the signal of each injection over a reference surface (anti-hFc) from the signal over the experimental surface (anti-hFc-captured anti-FGFR3 antibodies) thereby removing contributions from refractive index changes. In addition, running buffer injections were performed to allow subtraction of the signal changes resulting from the dissociation of captured antibodies from the coupled anti-hFc surface. Kinetic association (kₐ) and dissociation (kd) rate constants were determined by fitting the real-time sensorgrams to a 1:1 binding model using Scrubber v2.0c curve fitting software.

[2] = molecular target: T2, human FGFR3b expressed with a …; experiment: SPR Biacore, mAb captured on anti-hFc, 25C
Method: as §1, §2

[3] = molecular target: T5, human FGFR3c expressed with a C-terminal myc-myc-hexahistidine tag (hFGFR3c.mmH) (human, UniProt P22607 23-375); experiment: SPR Biacore, mAb captured on anti-hFc, 25C
T5 construct: also called REGN3155; monomeric human FGFR3c
Method: as §1, §2

[4] = molecular target: T3, murine FGFR3b expressed with a …; experiment: SPR Biacore, mAb captured on anti-hFc, 25C
Method: as §1, §2

[5] = molecular target: T4, human FGFR3b expressed with a …; experiment: SPR Biacore, mAb captured on anti-hFc, 25C
Method: as §1, §2

[6] = molecular target: T5, human FGFR3c expressed with a …; experiment: SPR Biacore, mAb captured on anti-hFc, 25C; row marked NB
Method: as §1, §2

[7] = molecular target: T4, human FGFR3b expressed with a …; experiment: competition ELISA: 4 nM hFGFR3b-mFc binding to plate-coated hFGF acidic
Method: The fixed concentration of hFGFR3b or hFGFR3c proteins was selected to be near the concentration that generated 50% of the maximal binding (EC₅₀ value) to plate-adhered hFGF acidic or hFGF basic protein. […] The plates were then developed using TMB substrate solution (BD Biosciences) according to the manufacturer's recommended procedure and absorbance at 450 nm was measured on a Victor X5 plate reader.
Binding data were analyzed using a sigmoidal (four-parameter logistic) dose-response model using GraphPad Prism software. […] Percent blocking of FGFR3 antibody at a given concentration was calculated based on the formula shown below.
The ability of anti-FGFR3 antibodies to block human FGFR3b binding to hFGF acidic protein or hFGFR3c binding to hFGF acidic or hFGF basic proteins was evaluated using a sandwich ELISA-based blocking assay.

[8] = molecular target: T3, murine FGFR3b expressed with a …; experiment: SPR Biacore, mAb captured on anti-hFc, 25C; row marked NB
Method: as §1, §2

[9] = molecular target: full length human FGFR3b on BaF3 cells (BAF3/FGFR3b, ACL11991) (human, UniProt P22607 23-808); experiment: cell-based or functional assay
[10] = molecular target: full length human FGFR3b S249C on BaF3 cells (BAF3/FGFR3b_S249C, ACL11986) (human, UniProt P22607 23-808); experiment: cell-based or functional assay

| Binder | 90 nM mfFGFR3b.mmH Bind (RU) [1] [RU] | Kd [1] [nM] | koff [1] [s⁻¹] | kon [1] [M⁻¹ s⁻¹] | t½ [1] [min] | 90 nM hFGFR3b.mmH Bind (RU) [2] [RU] | Kd [2] [nM] | koff [2] [s⁻¹] | kon [2] [M⁻¹ s⁻¹] | t½ [2] [min] | 90 nM mFGFR3b.mmH Bind (RU) [4] [RU] | Kd [4] [nM] | koff [4] [s⁻¹] | kon [4] [M⁻¹ s⁻¹] | t½ [4] [min] | 30 nM hFGFR3b.mFc Bind (RU) [5] [RU] | Kd [5] [nM] | koff [5] [s⁻¹] | kon [5] [M⁻¹ s⁻¹] | t½ [5] [min] | other results |
| --- | --- | --- | --- | --- | --- | --- | --- | --- | --- | --- | --- | --- | --- | --- | --- | --- | --- | --- | --- | --- | --- |
| H4H30066P (antibody, human IgG4 S228P, kappa, V domains shown, HCVR 22, LCVR 30) VH: QVQLVQSGAEVKKPGASVKVSCKVSGYTLTELSMHWVRQAPGKGLEWMGGFDPEDGEIIYAQKFQGRVTMTEDTSTDTAYMDLSSLTSEDTAVYYCATEKQQLVRKYYFYYGLAVWGQGTTVTVSS VL: not shown | 203 | 1.99 | 0.000779 | 391000 | 14.8 | 224 | 1.28 | 0.000635 | 496000 | 18.2 | 64.6 | 16.9 | 0.00487 | 288000 | 2.4 | 282 | ≤ 0.0158 | ≤ 1e-05 | 632000 | ≥ 1160 | binding result [3]: no binding (tested: 90 nM); 90 nM hFGFR3c.mmH Bind (RU) [6]: 0.5 RU; % Blocking at 200 nM mAb [7]: 90%; IC50 [7]: 3.2 nM |
| H4H30071P (antibody, human IgG4 S228P, kappa, V domains shown, HCVR 42, LCVR 50) VH: QVQLQQSGPGLVKPSQTLSLTCAISGDSVSRNSAAWNWIRQSPSSGLEWLGRTYYRSKWFYDYAISVKSRITVNPDTSKNQFSLHLNSVTPEDTAVYYCARGYGGYEDYFDYWGQGTLVTVSS VL: DIQMTQSPSSVSASVGDRVTITCRASQGISSWLAWYQQKPGKAPKLLIYGASSLQSGVPSRFSGSGSGTDFTLTISSLQPEDFATYFCQQGSSFPYTFGQGTKLEIKR | 233 | 0.123 | 2.22e-05 | 180000 | 520 | 253 | 0.137 | 2.96e-05 | 216000 | 390 | 174 | 7.65 | 0.00169 | 220000 | 6.9 | 236 | ≤ 0.031 | ≤ 1e-05 | 322000 | ≥ 1160 | 90 nM hFGFR3c.mmH Bind (RU) [6]: -4.8 RU; % Blocking at 200 nM mAb [7]: 88%; IC50 [7]: 3.6 nM |
| H4H30045P (antibody, human IgG4 S228P, kappa, V domains shown, HCVR 179, LCVR 187) VH: QVQLVQSGAEVKKPGASVKVSCKTSGYRFVNYGFSWVRQAPGQGLEWMGWISPYNGNTNYIQNLQDRITMTTDTSTNTAYMELTNLRSDDTAVYYCATLTGVHFDYWGQGTLVTVSS VL: AIQMTQSPSSLSASVGDRVTITCRASQGIRNDLGWYQQKPGKAPNLLIFETSRLQSGVPSRFSGSGSGTDFTLTINSLQPEDFATYYCLQDYNYPWTFGQGTKVEIKR | 71.9 | 20.6 | 0.00882 | 429000 | 1.3 | 124 | 16.2 | 0.00624 | 385000 | 1.9 | – | – | – | – | – | 266 | 0.581 | 0.000161 | 277000 | 71.8 | 90 nM hFGFR3c.mmH Bind (RU) [3]: 77.1 RU; Kd [3]: 19.6 nM; koff [3]: 0.00746 s⁻¹; kon [3]: 381000 M⁻¹ s⁻¹; t½ [3]: 1.5 min; binding result [4]: no binding (tested: 90 nM); 90 nM mFGFR3b.mmH Bind (RU) [8]: 2.4 RU |
| H4H30061P (antibody, human IgG4 S228P, kappa, V domains shown) VH: EVQLVESGGGLAQPGGSLKLSCEASGFTFSDSAMHWVRQASGKGLEWVGRIRSKANSYATGYAASVKGRFTISRDDSKNMAFLEMNSLKTEDTAVYYCLRQTYGDPWGQGTLVTVSS VL: DVVMTQSPLSLSVTLGQPASISCRSSLSLVYSDGNNYLNWFQQRPGQSPRRLLYKVFNRDSGVPDRFSGSGSGTDFTLKISRVEAEDVGVYYCMQGTHWPWTFGQGTKVEIKR | 197 | 0.65 | 9.83e-05 | 151000 | 118 | 249 | 0.506 | 8.74e-05 | 173000 | 132 | – | – | – | – | – | 260 | ≤ 0.0433 | ≤ 1e-05 | 231000 | ≥ 1160 | 90 nM hFGFR3c.mmH Bind (RU) [3]: 204 RU; Kd [3]: 0.526 nM; koff [3]: 7.92e-05 s⁻¹; kon [3]: 151000 M⁻¹ s⁻¹; t½ [3]: 146 min; 90 nM mFGFR3b.mmH Bind (RU) [8]: -8.5 RU |
| H4H30102P2 (antibody, human IgG4 S228P, kappa, V domains shown) VH: EVQLVESGGDLVQPGGSLRLSCAASGFTFSSYEMNWVRQAPGKGLEWVSYISNSGSTIYYADSVKGRFTISRDNAETSLYLQMNSLRAEDTAVYYCAREGWGAYCAGDCYSGFDIWGQGTMVTVSS VL: not shown | 126 | 1.75 | 0.00023 | 131000 | 50.2 | – | – | – | – | – | – | – | – | – | – | – | – | – | – | – | IC50 [M], BaF3 proliferation (CellTiter-Glo) with 1 nM FGF1 + 5 ug/ml heparin [9]: 1.86e-08 M; Max Blocking (%), BaF3 proliferation (CellTiter-Glo) with 1 nM FGF1 + 5 ug/ml heparin [9]: 41.1%; Max Blocking (%), BaF3 proliferation (CellTiter-Glo) with 1 nM FGF1 + 5 ug/ml heparin [10]: 34.5% |
